One substance from PMC8260207 can be followed below.

This assay concerns the target Purified human ribosomes from HEK293 cells (human).

Take “purified, recombinant human cGAS (from UniProt Q8N884 1-522) (natural protein)”: the cGAMP synthesis by cGAS (thin-layer chromatography) with saturating DNA, fold stimulation by pre-incubation with purified ribosomes, cGAS at 150–300 nM was found to be 8 fold.
